Data on 1 substance can be found in PMC3335157.

The target of experiment [1] is Full-length αvβ3 integrin (UniProt P06756). Briefly: SPR; BIAcore T100; αvβ3 integrin immobilised via primary amines on a CM5 chip (1341-2655 RU); NC1 α4(IV) injected at several concentrations and flow rates; 25°C; 10 mM Hepes pH 7.4, 150 mM NaCl, 1 mM MgCl2, 2 mM MnCl2, 50 mM β-octyl-D-glucopyranoside; global fit, two-state model. (Surface plasmon resonance follows binding to a sensor surface in real time, without labels.)

Experiment [2] shares this target.

A word on the Kd: it is the free concentration of one partner at which half of the binding sites on the other are occupied at equilibrium, for simple one-to-one binding. Higher therefore signals weaker binding.

UniProt P06756, sequence (P06756 31-1048, chain 1 of 2): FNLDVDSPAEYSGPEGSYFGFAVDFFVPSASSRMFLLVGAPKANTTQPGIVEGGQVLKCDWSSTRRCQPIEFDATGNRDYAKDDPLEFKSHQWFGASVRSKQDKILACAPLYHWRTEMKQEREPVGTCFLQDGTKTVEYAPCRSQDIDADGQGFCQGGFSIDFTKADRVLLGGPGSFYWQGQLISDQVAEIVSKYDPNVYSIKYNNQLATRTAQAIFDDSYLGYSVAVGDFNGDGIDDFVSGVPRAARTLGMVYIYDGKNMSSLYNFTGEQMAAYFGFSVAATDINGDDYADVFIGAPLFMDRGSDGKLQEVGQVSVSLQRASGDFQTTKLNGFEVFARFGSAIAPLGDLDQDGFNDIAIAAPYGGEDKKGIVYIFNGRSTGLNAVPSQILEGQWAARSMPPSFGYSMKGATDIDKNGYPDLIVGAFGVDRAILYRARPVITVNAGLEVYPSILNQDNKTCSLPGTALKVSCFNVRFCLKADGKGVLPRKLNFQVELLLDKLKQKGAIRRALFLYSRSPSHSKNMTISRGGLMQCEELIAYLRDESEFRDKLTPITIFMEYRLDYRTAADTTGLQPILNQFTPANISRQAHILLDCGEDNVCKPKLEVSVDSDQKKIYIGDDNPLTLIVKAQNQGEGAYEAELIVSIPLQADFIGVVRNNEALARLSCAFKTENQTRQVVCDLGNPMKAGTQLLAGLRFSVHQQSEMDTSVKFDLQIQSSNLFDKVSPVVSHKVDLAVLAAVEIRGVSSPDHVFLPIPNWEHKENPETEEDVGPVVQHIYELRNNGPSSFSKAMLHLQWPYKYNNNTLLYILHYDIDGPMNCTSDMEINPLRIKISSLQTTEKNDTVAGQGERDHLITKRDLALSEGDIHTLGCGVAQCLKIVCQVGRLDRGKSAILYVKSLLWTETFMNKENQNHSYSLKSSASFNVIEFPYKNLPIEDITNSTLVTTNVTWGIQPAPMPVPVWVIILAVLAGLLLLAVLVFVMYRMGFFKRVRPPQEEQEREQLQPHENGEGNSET
UniProt P06756, sequence (P05106 27-788, chain 2 of 2, further chain): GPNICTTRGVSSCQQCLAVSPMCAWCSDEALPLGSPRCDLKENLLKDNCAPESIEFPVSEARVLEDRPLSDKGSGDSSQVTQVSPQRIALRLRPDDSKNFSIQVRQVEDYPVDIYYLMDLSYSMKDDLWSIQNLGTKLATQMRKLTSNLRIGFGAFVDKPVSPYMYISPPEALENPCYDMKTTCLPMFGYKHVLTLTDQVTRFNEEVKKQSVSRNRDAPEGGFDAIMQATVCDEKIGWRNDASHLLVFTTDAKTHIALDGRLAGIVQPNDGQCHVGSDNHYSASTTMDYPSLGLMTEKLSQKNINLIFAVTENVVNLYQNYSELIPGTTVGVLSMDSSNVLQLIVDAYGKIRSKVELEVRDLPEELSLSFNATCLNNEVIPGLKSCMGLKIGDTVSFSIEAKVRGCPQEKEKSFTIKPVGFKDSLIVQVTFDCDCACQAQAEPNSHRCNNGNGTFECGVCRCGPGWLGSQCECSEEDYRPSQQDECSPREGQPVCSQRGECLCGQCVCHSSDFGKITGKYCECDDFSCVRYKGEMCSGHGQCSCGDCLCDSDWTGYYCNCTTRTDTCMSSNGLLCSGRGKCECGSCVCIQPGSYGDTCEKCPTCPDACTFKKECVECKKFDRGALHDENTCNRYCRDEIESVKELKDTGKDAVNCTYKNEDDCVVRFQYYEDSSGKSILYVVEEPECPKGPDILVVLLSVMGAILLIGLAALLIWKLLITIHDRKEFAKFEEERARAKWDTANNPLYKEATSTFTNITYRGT

In the case of “Recombinant human NC1 α4(IV) domain (NC1[α4(IV)1-229]) (domain or fragment)”, in experiment [1], the Kd worked out at 0.148 µM. For the same substance, in experiment [2], the adhesion of UACC-903 melanoma cells on recombinant NC1 α4(IV) substratum; change after preincubation of the cells with an anti-αvβ3 integrin blocking antibody (10 µg/mL); irrelevant IgG had no effect is -38%.
